CN116082503A

Target: T细胞表面未知蛋白 (unknown protein on the surface of CD3+ T cells)
Experiment: cell-based or functional assay

T细胞增殖抑制, 剂量依赖 (dose at which inhibition of T cell proliferation becomes evident): > 0.5 µg
Substance: IGSF9-ECD-His (带有His标签的人IGSF9胞外区蛋白) (receptor)
